Results taken from the supplement of paper PMC12042874.
± gives the uncertainty stated by the source.

Experiment: amyloid nucleation score (Sup35N fusion, yeast selection) (log enrichment); library NNK2; higher = more nucleation; inactive = no reads after selection
Method in brief: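 Random libraries were run with three technical output replicates. In each, psi-negative yeast expressing Sup35N fused to peptides of 20 random codons were induced 24 hours with 100 μM copper sulfate and grown 7 days at 30°C on medium lacking adenine and uracil, and input and output plasmid inserts were Illumina-sequenced. The nucleation score is the DiMSum log enrichment of output over input reads, centred on the mode score of non-aggregating sequences, and sequences under 100 input reads were excluded.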

Going from IVKYTGSKIYKFWYDLAGPL to IVVFSGVQVRGHCWNVKGAN, the amyloid nucleation score rises from -1.06 ± 1.1 to 7.64 ± 0.069.

Compared with IVWLLLSGRF, IVWSNMTIQQSTSSVY is lower in amyloid nucleation score: 4.54 ± 0.098 for the first, -0.25 ± 0.25 for the second.

IWFSWAVCFMITFHSHTHWW and IWRCNPG are within error of each other in amyloid nucleation score: 0.598 ± 0.57 for the first, 1.04 ± 0.68 for the second.

Going from IYCNNPRWSFLHSLKLEPLG to IYCVRQSDGQYSSEMAHYII, the amyloid nucleation score rises from -0.476 ± 0.28 to 2.64 ± 0.094.

IYFESPPTRWGGYVADNCEY and IYGAMCLCP are within error of each other in amyloid nucleation score: -1.36 ± 0.76 for the first, -0.005 ± 0.63 for the second.

Compared with IYLGVCYFSALGRDFMSKWW, IYTLL is lower in amyloid nucleation score: 1.77 ± 0.15 for the first, -0.228 ± 1.1 for the second.

First: IYTRFQLFR
Second: IYYRVWMSFSFRG
The amyloid nucleation score of the first is higher: 4.5 ± 0.069 for the first, -0.717 ± 0.37 for the second.

KARRPRIWDMDLLQLWANLP and KASLDN are within error of each other in amyloid nucleation score: 1.12 ± 0.66 for the first, 0.018 ± 0.51 for the second.

KAYCVHSPVVCISGRVLDSG and KCDYPGFWMPGQSYKDSILD are within error of each other in amyloid nucleation score: -1 ± 1.1 for the first, -1.61 ± 1.1 for the second.

KCEYGLSVKYCVGQTGGN and KCFKVRTDLWRSC are within error of each other in amyloid nucleation score: 1.17 ± 0.48 for the first, 1.38 ± 0.53 for the second.

KCIAGMSWCEH and KCIIRTNKFFAFHVCKLTVN are within error of each other in amyloid nucleation score: 0.252 ± 0.2 for the first, 0.498 ± 0.3 for the second.

First: KCTTVIYYMCIGLRH
Second: KCVRKCYDIYGLLSCCGRLA
The amyloid nucleation score of the first is lower: 4.98 ± 0.041 for the first, 8.844 ± 0.039 for the second.

Going from KCYSYCLLAL to KDAPKFIYFSQLTTKCITRY, the amyloid nucleation score rises from -0.202 ± 1.1 to 4.14 ± 0.044.

KDFLANPKGESGQQRTMQCI and KDGSFSPISL are within error of each other in amyloid nucleation score: -0.502 ± 0.79 for the first, -0.116 ± 0.35 for the second.

KDNSTPRIGASDEIDVVLAF and KDWGFRNTCG are within error of each other in amyloid nucleation score: 0.078 ± 0.77 for the first, -0.184 ± 1.1 for the second.

KEAPFCASGLPD and KFGNSCR are within error of each other in amyloid nucleation score: -0.324 ± 1.1 for the first, -0.428 ± 0.42 for the second.

Going from KFKVHQMQDVLSWVGYHDGS to KFRDVFFPY, the amyloid nucleation score falls from 4.13 ± 0.044 to -0.76 ± 0.55.

Compared with KFRNCVRKDFLSMHHFSVVF, KFSTLCRISYITYLFFG is higher in amyloid nucleation score: -0.666 ± 0.45 for the first, 6.336 ± 0.049 for the second.

Going from KFTVDFYLTACTGTKIDFMV to KGFDEVGMMAIGFDSWVGTR, the amyloid nucleation score falls from 5.981 ± 0.04 to 0.242 ± 0.26.

KGIDKPIEGPSSKHLRFNCY and KGIYIFRHLCGMDVNMGPMD are within error of each other in amyloid nucleation score: 0.071 ± 0.65 for the first, -0.764 ± 0.64 for the second.

KGKTLLYSAKHIVFNR and KGSIRCPRVFHQFRFLMG are within error of each other in amyloid nucleation score: 0.482 ± 0.3 for the first, -0.302 ± 0.74 for the second.

First: KGSSSWTLPVYSLELSLV
Second: KGVCRNMAGGKYANMRYGGV
The amyloid nucleation score of the first is lower: -0.731 ± 0.79 for the first, 5.09 ± 0.051 for the second.

Going from KHSWSIALV to KICWYQFKANMASQ, the amyloid nucleation score rises from 0.239 ± 0.65 to 4.41 ± 0.086.

First: KIKYYEAIDGACNSGWFDLG
Second: KILNDWADMKSRLMGRLLGE
The amyloid nucleation score of the first is higher: 2.92 ± 0.057 for the first, 0.65 ± 0.42 for the second.

Going from KIRFIPTPKYHEIYMNAAIG to KIRRPFEMRGSVRDRGCIVR, the amyloid nucleation score rises from -1.7 ± 0.75 to 0.938 ± 0.34.

KKHIWGCMRYKMLTL and KKLKRRRVFVCEFTKEGIRG are within error of each other in amyloid nucleation score: -0.393 ± 1.1 for the first, -0.067 ± 1.1 for the second.

First: KKLYFWINAHNRELTLKTWV
Second: KKRLCDTSTIFQINNLHRMM
The amyloid nucleation score of the first is higher: 0.226 ± 0.54 for the first, -1.32 ± 0.76 for the second.

KLANYHLARDSFMVRKHRKG and KLAPLNKGSFA are within error of each other in amyloid nucleation score: 0.602 ± 0.57 for the first, -0.211 ± 0.63 for the second.

Compared with KLGCYVS, KLLFLLVVVLADQMSCLGTS is lower in amyloid nucleation score: 3.23 ± 0.088 for the first, 1.1 ± 0.36 for the second.

Compared with KLPMRNFRDVCEADLHPVK, KLSNLSHDSYMLENALFALT is higher in amyloid nucleation score: 1.11 ± 0.61 for the first, 2.52 ± 0.063 for the second.

Compared with KLTFSCGGLGGNLYVWL, KLVVLCFLSVIVWVNGQR is lower in amyloid nucleation score: 7.999 ± 0.042 for the first, 4.67 ± 0.07 for the second.

Going from KLWSSARFIWLSNHHLHGDC to KLWTISVDHPGII, the amyloid nucleation score falls from 1.01 ± 0.57 to -1.45 ± 1.

Going from KLYVAIMNSWILGKVGSYNG to KMDFAFEA, the amyloid nucleation score falls from 6.214 ± 0.034 to -0.202 ± 0.8.

KMEMRGCRMVTNMYC and KMIVLK are within error of each other in amyloid nucleation score: -0.06 ± 0.33 for the first, 0.449 ± 0.41 for the second.

Compared with KMSMSFSWWE, KNIAISSRVADAGFWL is lower in amyloid nucleation score: 3.51 ± 0.068 for the first, 2.31 ± 0.093 for the second.

KNVLLKTLVHWLGRGMSAPG and KPEVRVEMQCNYVAWYTDMI are within error of each other in amyloid nucleation score: 0.165 ± 1 for the first, -0.61 ± 0.37 for the second.

Compared with KPGMRNNYFLAFGFYCTCTR, KPNFIRLYRIKFNKLGLGIT is lower in amyloid nucleation score: 1.59 ± 0.21 for the first, -0.855 ± 1 for the second.

KRFAIPEHTLTTYRQLA and KRFIESNIVIQSDLTSLRRK are within error of each other in amyloid nucleation score: 0.082 ± 0.42 for the first, -0.184 ± 1.1 for the second.

Compared with KRMKRLVCGTRVDMYRGSLW, KRTWFERLWSSSNRVLGCLC is higher in amyloid nucleation score: -0.222 ± 0.33 for the first, 4.27 ± 0.051 for the second.

KRWCRGSE and KSASCKPIMSYPKVLPS are within error of each other in amyloid nucleation score: 0.229 ± 0.24 for the first, 0.208 ± 0.8 for the second.

Compared with KSHAPFVLMCRIGVGSKCGK, KSIAGNC is lower in amyloid nucleation score: 3.81 ± 0.09 for the first, -1.48 ± 0.78 for the second.

Compared with KSIVNL, KSKLRCTFYSDAL is lower in amyloid nucleation score: 0.465 ± 0.41 for the first, -0.219 ± 0.27 for the second.

KSLLWHLQLLAKT and KSMLLMIMSSFGSDIWHITS are within error of each other in amyloid nucleation score: 0.174 ± 0.63 for the first, -0.337 ± 1.1 for the second.

KSRIDSESGGGQSFS and KSVKIVSSAMKGWIHSTYSR are within error of each other in amyloid nucleation score: -0.805 ± 0.63 for the first, -0.316 ± 0.28 for the second.

KSWHPRFQSDMKFHLFCLVV and KTKVL are within error of each other in amyloid nucleation score: -0.19 ± 0.56 for the first, 0.348 ± 0.65 for the second.

KTLWPGTWGGLITRVWWYTR and KTPGSHVGLWSMPGRSYPSA are within error of each other in amyloid nucleation score: 0.471 ± 0.18 for the first, 0.401 ± 0.45 for the second.

First: KTRHKVLRKDL
Second: KVAFLLRVGAYFDSWWHRRV
The amyloid nucleation score of the first is lower: -1.64 ± 0.54 for the first, 0.166 ± 0.39 for the second.

Compared with KVALINYSLPMYFSVVTGLY, KVALVHAGLKNFWRSSLWRL is lower in amyloid nucleation score: 2.97 ± 0.071 for the first, 1.11 ± 0.41 for the second.

KVGNGRDCIMLTVSCA and KVKSWCTGLLGA are within error of each other in amyloid nucleation score: 0.748 ± 0.23 for the first, 0.075 ± 0.76 for the second.

First: KVLATMGDIGVVLSVMLVPV
Second: KVLCWLRVRYLKGLGQGSAC
The amyloid nucleation score of the first is higher: 1.33 ± 0.3 for the first, 0.358 ± 0.31 for the second.

KVLVRHLRCAISPSF and KVTSMHVFIESWGV are within error of each other in amyloid nucleation score: 0.256 ± 1 for the first, 0.082 ± 0.79 for the second.

KVVIYGCSS and KWCPLFKGSIGFSFLVHTMK are within error of each other in amyloid nucleation score: -0.183 ± 0.65 for the first, -1.26 ± 1.1 for the second.

Going from KWITVYETVNCMSGWFIQDL to KWVVKMDVGCVPSQTRRGSW, the amyloid nucleation score falls from 6.622 ± 0.033 to 1.05 ± 0.4.

For IVYKGFLREN, the amyloid nucleation score was “inactive”.
With KAIFSCDARFVRWNAHNREC the amyloid nucleation score was “inactive”.
With KAIYPYLI the amyloid nucleation score was “inactive”.
With KALYYY the amyloid nucleation score was “inactive”.
For KATDSRYRFFMILMFYMTIY, the amyloid nucleation score was “inactive”.
With KDCISLDSIV the amyloid nucleation score was “inactive”.
With KFNPRPCSFKYLRV the amyloid nucleation score was “inactive”.
In the case of KIVLGYCVLKITEQELMLWV, the amyloid nucleation score is reported as “inactive”.
With KKACSLFTRGFGRYRNTYEV the amyloid nucleation score was “inactive”.
For KKSYFTSLTLLFMTPFSLSY, the amyloid nucleation score was “inactive”.
With KLFCTKVNIRRTSYSVTSIY the amyloid nucleation score was “inactive”.
In the case of KLPYVEIPVVLTSLSYLGV, the amyloid nucleation score is reported as “inactive”.
In the case of KLTPYRISKMPSWLSA, the amyloid nucleation score is reported as “inactive”.
In the case of KMPGFLVCW, the amyloid nucleation score is reported as “inactive”.
In the case of KMSPQ, the amyloid nucleation score is reported as “inactive”.
With KNDISHS the amyloid nucleation score was “inactive”.
For KPGRYRDVIRFLSDLLECNG, the amyloid nucleation score was “inactive”.
For KSRNYIFSGYELVASPSSVK, the amyloid nucleation score was “inactive”.
In the case of KSVYLSIGDILAFFSIVLLY, the amyloid nucleation score is reported as “inactive”.
In the case of KVARGVCYCRFSL, the amyloid nucleation score is reported as “inactive”.
With KVFNSLASYSSIDLWCVVAG the amyloid nucleation score was “inactive”.
